According to PMC9691722:

Molecular target: HCV1406 TCR
Test: SPR; steady-state titration; TCR amine coupled to the sensor surface (1000-5000 RU), peptide/HLA-A2 injected at increasing concentrations, 5 μL/min, 25 °C, HBS-EP (10 mM HEPES, 150 mM NaCl, 3 mM EDTA, 0.005% surfactant P20, pH 7.4); 1:1 model; mutants globally fit alongside wild type with a shared RUmax

Substance: NS3/HLA-A2 with Arg65 of HLA-A2 mutated to alanine (from UniProt P61769 21-119) (peptide-MHC)
- Kd: > 1.5 mM
